According to US20220177581A1 (Memorial Sloan Kettering, published 2022):
Residue numbers refer to the chain shown, from its start.

T1: CD22 (antigen in the Biacore assay) (human, UniProt P20273 20-687, limits assumed)
T1 sequence: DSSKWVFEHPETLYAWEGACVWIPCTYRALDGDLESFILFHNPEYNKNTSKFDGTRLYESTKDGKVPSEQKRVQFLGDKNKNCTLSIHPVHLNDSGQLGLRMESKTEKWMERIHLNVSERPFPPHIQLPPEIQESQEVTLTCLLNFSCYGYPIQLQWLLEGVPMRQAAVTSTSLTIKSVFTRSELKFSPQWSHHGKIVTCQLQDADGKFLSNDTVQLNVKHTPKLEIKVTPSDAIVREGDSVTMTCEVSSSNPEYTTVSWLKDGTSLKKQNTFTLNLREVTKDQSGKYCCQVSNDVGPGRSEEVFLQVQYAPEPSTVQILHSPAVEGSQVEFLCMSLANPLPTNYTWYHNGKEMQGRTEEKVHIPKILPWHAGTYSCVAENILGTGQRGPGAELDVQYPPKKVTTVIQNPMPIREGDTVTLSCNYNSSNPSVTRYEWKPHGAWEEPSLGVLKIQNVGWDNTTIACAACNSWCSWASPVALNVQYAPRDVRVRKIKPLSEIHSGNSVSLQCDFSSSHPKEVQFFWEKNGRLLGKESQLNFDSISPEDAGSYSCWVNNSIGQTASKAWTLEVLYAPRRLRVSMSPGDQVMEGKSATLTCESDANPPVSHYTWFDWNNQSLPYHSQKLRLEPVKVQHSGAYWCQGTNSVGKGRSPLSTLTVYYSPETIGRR

T2: CD22 (UniProtKB-P20273) on CD22(+) cells (human, UniProt P20273 20-847)
T2 construct: Endogenous CD22 on the NALM6 and Raji cell lines; also called SIGLEC-2; BL-CAM
T2 sequence: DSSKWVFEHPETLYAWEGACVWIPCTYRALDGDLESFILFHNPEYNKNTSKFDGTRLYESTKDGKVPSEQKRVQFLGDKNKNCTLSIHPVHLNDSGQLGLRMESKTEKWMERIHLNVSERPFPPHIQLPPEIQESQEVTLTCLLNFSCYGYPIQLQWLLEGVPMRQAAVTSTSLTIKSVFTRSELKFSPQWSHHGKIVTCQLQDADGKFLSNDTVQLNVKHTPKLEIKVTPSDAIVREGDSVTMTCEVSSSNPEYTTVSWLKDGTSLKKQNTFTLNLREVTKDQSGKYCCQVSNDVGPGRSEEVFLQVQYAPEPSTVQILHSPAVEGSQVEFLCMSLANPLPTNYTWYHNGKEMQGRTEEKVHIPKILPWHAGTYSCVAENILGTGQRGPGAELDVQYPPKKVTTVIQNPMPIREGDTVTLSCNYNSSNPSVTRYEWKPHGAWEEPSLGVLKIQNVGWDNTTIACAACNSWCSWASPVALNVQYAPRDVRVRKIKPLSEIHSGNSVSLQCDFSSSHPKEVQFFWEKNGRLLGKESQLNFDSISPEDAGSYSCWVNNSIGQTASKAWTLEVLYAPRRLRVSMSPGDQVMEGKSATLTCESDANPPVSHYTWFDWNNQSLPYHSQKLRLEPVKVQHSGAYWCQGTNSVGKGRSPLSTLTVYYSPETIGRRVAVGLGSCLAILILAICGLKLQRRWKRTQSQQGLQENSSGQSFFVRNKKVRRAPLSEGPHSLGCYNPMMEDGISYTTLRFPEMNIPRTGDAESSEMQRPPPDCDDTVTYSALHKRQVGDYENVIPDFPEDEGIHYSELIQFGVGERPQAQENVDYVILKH

B1: chimeric LL2 antibody (antibody, V domains shown)
VH: QVQLQESGAELSKPGASVKMSCKASGYTFTSYWLHWIKQRPGQGLEWIGYINPRNDYTEYNQNFKDKATLTADKSSSTAYMQLSSLTSEDSAVYYCARRDITTFYWGQGTTLTVSS
VL: DIQLTQSPSSLAVSAGENVTMSCKSSQSVLYSANHKNYLAWYQQKPGQSPKLLIYWASTRESGVPDRFTGSGSGTDFTLTISRVQVEDLAIYYCHQYLSSWTFGGGTKLEIK
notes: Murine LL2 variable domains with human constant domains (IgG1)
B2: humanized LL2 L1 + H9 (antibody, V domains shown)
VH: QVQLVQSGAEVKKPGASVKVSCKASGYTFTSYWLHWVRQAPGQRLEWIGYINPRNDYTEYNQNFKDRVTITADTSASTAYMELSSLRSEDTAVYYCARRDITTFYWGQGTTLTVSS
VL: B1 VL with Q3V, S9D, N18R, S22N, S49P, T69S, R83S, V86A, L89V
notes: Human IgG1 frameworks; also called H9L1
B3: humanized LL2 L1 + H12 (antibody, V domains shown)
VH: B2 VH with V5Q, V20M, I48M
VL: B1 VL with Q3V, S9D, N18R, S22N, S49P, T69S, R83S, V86A, L89V
notes: Human IgG1 frameworks; also called H12L1; VL1-VH12
B4: humanized LL2 L1 + H11 (antibody, V domains shown)
VH: B2 VH with V20M, I48M, V68A
VL: B1 VL with Q3V, S9D, N18R, S22N, S49P, T69S, R83S, V86A, L89V
notes: Human IgG1 frameworks; also called H11L1; VL1-VH11
B5: humanized LL2 L1 + H3 (antibody, V domains shown)
VH: B2 VH with V5Q, V37I, N61S, N63K, K65Q, D66G, V68A, I70L
VL: B1 VL with Q3V, S9D, N18R, S22N, S49P, T69S, R83S, V86A, L89V
notes: Human IgG1 frameworks; also called H3L1
B6: humanized LL2 L1 + H5 (antibody, V domains shown)
VH: B2 VH with V5Q, Q6E, N61S, N63K, K65Q, D66G, V68A, I70L
VL: B1 VL with Q3V, S9D, N18R, S22N, S49P, T69S, R83S, V86A, L89V
notes: Human IgG1 frameworks; also called H5L1
B7: humanized LL2 L1 + H2 (antibody, V domains shown)
VH: QVQLQESGAEVKKPGASVKMSCKASGYTFTSYWLHWIRQAPGQRLEWIGYINPRNDYTKYSQKFQGRVTLTRDKSASTAYMELSSLRSEDTAVYYCARRDITTFYWGQGTTLTVSS
VL: B1 VL with Q3V, S9D, N18R, S22N, S49P, T69S, R83S, V86A, L89V
notes: Human IgG1 frameworks; also called H2L1
B8: humanized LL2 L1 + H4 (antibody, V domains shown)
VH: B7 VH with E6Q, I48M, K59E, S61N, V68A, L70I, R72A
VL: B1 VL with Q3V, S9D, N18R, S22N, S49P, T69S, R83S, V86A, L89V
notes: Human IgG1 frameworks; also called H4L1
B9: humanized LL2 L1 + H10 (antibody, V domains shown)
VH: B2 VH with I48M, I70L, T74K
VL: B1 VL with Q3V, S9D, N18R, S22N, S49P, T69S, R83S, V86A, L89V
notes: Human IgG1 frameworks; also called H10L1
B10: humanized LL2 L2 + H1 (antibody, V domains shown)
VH: B7 VH with Q5V, V68A, L70I, R72A
VL: B1 VL with Q3V, S9D, A15L, N18R, S22N, T69S, R83S, V86A, L89V
notes: Human IgG1 frameworks; also called H1L2
B11: humanized LL2 L1 + H6 (antibody, V domains shown)
VH: B2 VH with V5Q, V37I, I48M, A72R
VL: B1 VL with Q3V, S9D, N18R, S22N, S49P, T69S, R83S, V86A, L89V
notes: Human IgG1 frameworks; also called H6L1
B12: humanized LL2 L2 + H2 (antibody, V domains shown)
VH: B7 VH
VL: B1 VL with Q3V, S9D, A15L, N18R, S22N, T69S, R83S, V86A, L89V
notes: Human IgG1 frameworks
B13: humanized LL2 L2 + H7 (antibody, V domains shown)
VH: B2 VH with Q6E, I48M, V68A, A72R
VL: B1 VL with Q3V, S9D, A15L, N18R, S22N, T69S, R83S, V86A, L89V
notes: Human IgG1 frameworks
B14: humanized LL2 L1 + H8 (antibody, V domains shown)
VH: B2 VH with Q6E, V37I, I48M, A72R
VL: B1 VL with Q3V, S9D, N18R, S22N, S49P, T69S, R83S, V86A, L89V
notes: Human IgG1 frameworks
B15: humanized LL2 L2 + H10 (antibody, V domains shown)
VH: B2 VH with I48M, I70L, T74K
VL: B1 VL with Q3V, S9D, A15L, N18R, S22N, T69S, R83S, V86A, L89V
notes: Human IgG1 frameworks
B16: humanized LL2 L2 + H12 (antibody, V domains shown)
VH: B2 VH with V5Q, V20M, I48M
VL: B1 VL with Q3V, S9D, A15L, N18R, S22N, T69S, R83S, V86A, L89V
notes: Human IgG1 frameworks
B17: humanized LL2 L2 + H3 (antibody, V domains shown)
VH: B7 VH with E6Q, M20V, K59E, V68A, R72A, K74T
VL: B1 VL with Q3V, S9D, A15L, N18R, S22N, T69S, R83S, V86A, L89V
notes: Human IgG1 frameworks
B18: humanized LL2 L2 + H5 (antibody, V domains shown)
VH: B7 VH with M20V, I37V, K59E, V68A, R72A, K74T
VL: B1 VL with Q3V, S9D, A15L, N18R, S22N, T69S, R83S, V86A, L89V
notes: Human IgG1 frameworks
B19: humanized LL2 L1 + H7 (antibody, V domains shown)
VH: B2 VH with Q6E, I48M, V68A, A72R
VL: B1 VL with Q3V, S9D, N18R, S22N, S49P, T69S, R83S, V86A, L89V
notes: Human IgG1 frameworks
B20: humanized LL2 L2 + H11 (antibody, V domains shown)
VH: B2 VH with V20M, I48M, V68A
VL: B1 VL with Q3V, S9D, A15L, N18R, S22N, T69S, R83S, V86A, L89V
notes: Human IgG1 frameworks
B21: humanized LL2 L2 + H8 (antibody, V domains shown)
VH: B2 VH with Q6E, V37I, I48M, A72R
VL: B1 VL with Q3V, S9D, A15L, N18R, S22N, T69S, R83S, V86A, L89V
notes: Human IgG1 frameworks
B22: humanized LL2 L2 + H9 (antibody, V domains shown)
VH: B2 VH
VL: B1 VL with Q3V, S9D, A15L, N18R, S22N, T69S, R83S, V86A, L89V
notes: Human IgG1 frameworks
B23: humanized LL2 L2 + H4 (antibody, V domains shown)
VH: B7 VH with E6Q, I48M, K59E, S61N, V68A, L70I, R72A
VL: B1 VL with Q3V, S9D, A15L, N18R, S22N, T69S, R83S, V86A, L89V
notes: Human IgG1 frameworks
B24: humanized LL2 L2 + H6 (antibody, V domains shown)
VH: B2 VH with V5Q, V37I, I48M, A72R
VL: B1 VL with Q3V, S9D, A15L, N18R, S22N, T69S, R83S, V86A, L89V
notes: Human IgG1 frameworks
B25: humanized LL2 L1 + H1 (antibody, V domains shown)
VH: B7 VH with Q5V, V68A, L70I, R72A
VL: B1 VL with Q3V, S9D, N18R, S22N, S49P, T69S, R83S, V86A, L89V
notes: Human IgG1 frameworks

These binders were tested against T1, CD22 (antigen in the Biacore assay) (assay: SPR (Biacore) at 37° C).

Row | Binder | Kd [pM] | koff [s⁻¹] | kon [M⁻¹ s⁻¹]
1 | B1 | 1.37 | 2.31e-07 | 169000
2 | B2 | 24.8 | 3.3e-06 | 133000
3 | B3 | 2.05 | 5.88e-07 | 287000
4 | B4 | 0.0104 | 1.71e-09 | 164000
5 | B5 | 34.4 | 3.09e-06 | 89800
6 | B6 | 41 | 4.19e-06 | 102000
7 | B7 | 1720 | 0.00478 | 2.77e+06
8 | B8 | 0.00191 | – | 154000
9 | B9 | 0.0435 | 7.67e-09 | 176000
10 | B10 | 403 | 0.00219 | 5.43e+06
11 | B11 | 0.17 | 2.91e-08 | 171000

The binders below were run against T2, CD22 (UniProtKB-P20273) on CD22(+) cells (assay: flow cytometry on CD22(+) NALM6 cells).

Row | Binder | MFI (FACS NALM6)
12 | B1 | 33.4
13 | B2 | 34.5
14 | B12 | 28.1
15 | B3 | 39.2
16 | B13 | 27.3
17 | B14 | 23.3
18 | B15 | 37
19 | B4 | 33.6
20 | B5 | 31.9
21 | B16 | 31.7
22 | B17 | 36.8
23 | B18 | 40.4
24 | B6 | 35.2
25 | B7 | 32.8
26 | B8 | 33.6
27 | B9 | 32.7
28 | B19 | 21.8
29 | B20 | 36.3
30 | B21 | 26.7
31 | B22 | 34.3
32 | B10 | 40
33 | B23 | 35.9
34 | B24 | 36.1
35 | B25 | 26.4
36 | B11 | 33.5
